In US20220402989A1:
Read-outs that look alike come from different tables or passages of the source.

How the values were obtained:
[1] = biological target: IL2Rα/β/γ receptor (high affinity IL2 receptor) on YT/STAT5-Luc cells expressing endogenous or over-expressed human IL2Rα (human) (UniProt P01589); test: cell-based or functional assay
[2] = biological target: IL2Rβ/γ receptor (low/medium affinity IL2 receptor) on YT/STAT5-Luc cells with IL2Rα knocked out (human) (UniProt P14784); test: cell-based or functional assay
[3] = biological target: human PD1 (amino acids M1-L288 of NP_005009.2 with a 2Q=>E mutation) stably expressed on engineered reporter cells (human) (UniProt Q15116); test: cell-based or functional assay
[4] = biological target: IL2Rα/β/γ receptor (high affinity IL2 receptor) on YT/STAT5-Luc cells expressing endogenous or over-expressed human IL2Rα (human) (UniProt P01589); test: cell-based or functional assay; remark: listed apart in the source
[5] = biological target: IL2Rβ/γ receptor (low/medium affinity IL2 receptor) on YT/STAT5-Luc cells with IL2Rα knocked out (human) (UniProt P14784); test: cell-based or functional assay; remark: listed apart in the source
[6] = biological target: IL2Rβ/γ receptor (low/medium affinity IL2 receptor) on YT/STAT5-Luc cells with IL2Rα knocked out (human) (UniProt P14784); test: flow cytometry, YT/STAT5-Luc CD25 KO/PD1 OE cells, AF647 anti-human IgG secondary
[7] = biological target: IL2Rα/β/γ receptor (high affinity IL2 receptor) on YT/STAT5-Luc cells expressing endogenous or over-expressed human IL2Rα (human) (UniProt P01589); test: flow cytometry, YT/STAT5-Luc CD25 OE/PD1 OE cells, AF647 anti-human IgG secondary
[8] = biological target: IL2Rα/β/γ receptor (high affinity IL2 receptor) on YT/STAT5-Luc cells expressing endogenous or over-expressed human IL2Rα (human) (UniProt P01589); test: flow cytometry on YT/STAT5-Luc/IL2Ra OE (CD25 OE/PD1 OE) cells, AF647 anti-human IgG secondary, gMFI on a log axis

Substance | Fold induction, STAT5-Luc IL2 reporter assay, YT/Stat5-Luc [1] [fold] | Fold induction, STAT5-Luc IL2 reporter assay, YT/Stat5-Luc/hIL2Rα [1] [fold] | Fold induction, STAT5-Luc IL2 reporter assay, YT/Stat5-Luc/hIL2Rα/hPD1 [1] [fold] | Fold induction, STAT5-Luc IL2 reporter assay, YT/Stat5-Luc/hPD1 [1] [fold] | Fold induction, STAT5-Luc IL2 reporter assay, YT/Stat5-Luc/IL2Rα KO [2] [fold] | Fold induction, STAT5-Luc IL2 reporter assay, YT/Stat5-Luc/IL2Rα KO/hPD1 [2] [fold] | EC50 (M), STAT5-Luc IL2 reporter assay, CD25 OE/PD1 OE [1] [M] | EC50, STAT5-Luc IL2 reporter assay, YT/Stat5-Luc/hIL2Rα [1] [nM] | EC50, STAT5-Luc IL2 reporter assay, YT/Stat5-Luc/hIL2Rα/hPD1 [1] [nM] | Max Fold induction, STAT5-Luc IL2 reporter assay, CD25 OE/PD1 OE [1] [fold] | Max Fold induction, STAT5-Luc IL2 reporter assay, CD25 KO/PD1 OE [2] [fold] | Fold induction, AP1-Luc PD1 antagonistic assay [3] [fold] | further results
Isotype control (IL2 reporter assay, Tables 8 and 9) (antibody) | 1.07 | 1.07 | 1 | 1.08 | 1.12 | 1.06 |  |  |  |  |  |  | 
REGN10597 | 3.29 | 5.19 | 2.88 | 6.39 | 2.85 | 3.54 | 3.3e-11 | 0.848 | 0.0353 | 7.36 | 5.72 | 3.04 | EC50, STAT5-Luc IL2 reporter assay, YT/Stat5-Luc/hPD1 [1]: 0.175 nM; EC50 (M), STAT5-Luc IL2 reporter assay, CD25 KO/PD1 OE [2]: 5.78e-11 M; EC50, STAT5-Luc IL2 reporter assay, YT/Stat5-Luc/IL2Rα KO/hPD1 [2]: 0.191 nM; EC50 (M), AP1-Luc PD1 antagonistic assay [3]: 1.26e-08 M; EC50, PD1 competition STAT5-Luc assay, YT/STAT5-Luc/IL2Rα KO/hPD1, no antibody ('-') [3]: 0.129 nM; EC50, PD1 competition STAT5-Luc assay, YT/STAT5-Luc/IL2Rα KO/hPD1, with Comp 1 [3]: 0.306 nM; EC50, PD1 competition STAT5-Luc assay, YT/STAT5-Luc/IL2Rα KO/hPD1, with Comp 2 [3]: 0.281 nM; EC50, PD1 competition STAT5-Luc assay, YT/STAT5-Luc/IL2Rα KO/hPD1, with REGN2810 [3]: 0.222 nM; EC50, PD1 competition STAT5-Luc assay, YT/STAT5-Luc/IL2Rα KO/hPD1, with isotype control [3]: 0.132 nM; EC50, PD1 competition STAT5-Luc assay, YT/STAT5-Luc/hIL2Rα/hPD1, no antibody ('-') [3]: 0.0545 nM; EC50, PD1 competition STAT5-Luc assay, YT/STAT5-Luc/hIL2Rα/hPD1, with Comp 1 [3]: 0.0765 nM; EC50, PD1 competition STAT5-Luc assay, YT/STAT5-Luc/hIL2Rα/hPD1, with Comp 2 [3]: 0.0805 nM; EC50, PD1 competition STAT5-Luc assay, YT/STAT5-Luc/hIL2Rα/hPD1, with REGN2810 [3]: 0.117 nM; EC50, PD1 competition STAT5-Luc assay, YT/STAT5-Luc/hIL2Rα/hPD1, with isotype control [3]: 0.0709 nM; EC50 (M), STAT5-Luc IL2 reporter assay, CD25 OE/PD1 OE [4]: 3.71e-11 M; Max Fold induction, STAT5-Luc IL2 reporter assay, CD25 OE/PD1 OE [4]: 5.1 fold; EC50 (M), STAT5-Luc IL2 reporter assay, CD25 KO/PD1 OE [5]: 8.38e-11 M; Max Fold induction, STAT5-Luc IL2 reporter assay, CD25 KO/PD1 OE [5]: 4.36 fold
Isotype control 1 (antibody) |  |  |  |  |  |  |  |  |  |  |  | 1.13 | 
REGN9903 (isotype-IL2Rα-IL2 control) |  |  |  |  |  |  | 3.31e-10 |  |  | 7 | 4.37 |  | 
Isotype control 2 (antibody) |  |  |  |  |  |  |  |  |  |  |  | 1.2 | 
IL2-Fc (Fc fusion) | 4.96 | 5.49 | 3.06 | 7.97 | 5.4 | 3.87 |  | 0.0241 | 0.0232 |  |  |  | EC50, STAT5-Luc IL2 reporter assay, YT/Stat5-Luc [1]: 0.402 nM; EC50, STAT5-Luc IL2 reporter assay, YT/Stat5-Luc/hPD1 [1]: 0.392 nM; EC50, STAT5-Luc IL2 reporter assay, YT/Stat5-Luc/IL2Rα KO [2]: 1.33 nM; EC50, STAT5-Luc IL2 reporter assay, YT/Stat5-Luc/IL2Rα KO/hPD1 [2]: 0.442 nM
Isotype-IL2-IL2Ra |  |  |  |  |  |  | 1.41e-09 |  |  | 7.78 | 1.25 |  | 
REGN9904 (non-targeted IL2Rα-IL2) | 3.21 | 4.87 | 2.77 | 4.52 | 2.62 | 2.59 |  | 1.63 | 0.971 |  |  | 1.08 | EC50, PD1 competition STAT5-Luc assay, YT/STAT5-Luc/hIL2Rα/hPD1, no antibody ('-') [1]: 0.703 nM; EC50, PD1 competition STAT5-Luc assay, YT/STAT5-Luc/hIL2Rα/hPD1, with Comp 1 [1]: 0.918 nM; EC50, PD1 competition STAT5-Luc assay, YT/STAT5-Luc/hIL2Rα/hPD1, with Comp 2 [1]: 0.938 nM; EC50, PD1 competition STAT5-Luc assay, YT/STAT5-Luc/hIL2Rα/hPD1, with REGN2810 [1]: 0.651 nM; EC50, PD1 competition STAT5-Luc assay, YT/STAT5-Luc/hIL2Rα/hPD1, with isotype control [1]: 0.791 nM; EC50 (M), STAT5-Luc IL2 reporter assay, CD25 OE/PD1 OE [4]: 7.69e-10 M; Max Fold induction, STAT5-Luc IL2 reporter assay, CD25 OE/PD1 OE [4]: 4.57 fold; Max Fold induction, STAT5-Luc IL2 reporter assay, CD25 KO/PD1 OE [5]: 3.24 fold; Fold induction (highest gMFI relative to gMFI without antibody) [6]: 1.7 fold; Max gMFI [6]: 3990 gMFI; Fold induction (highest gMFI relative to gMFI without antibody) [7]: 33.1 fold; Max gMFI [7]: 77600 gMFI; EC50 (read off the curve) [8]: 10 nM
